This assay has as its target transferrin receptor on the membrane surface of Vero E6 cells (African green monkey). In words: cell-based or functional assay.

With “transferrin (Sigma, catalog number T4382) (from UniProt P02787 20-698) (ligand)”, the EC50 of inhibition of SARS-CoV-2 infection of Vero E6 cells, calculated by CPE was 125 nM.

Source of the values: patent US20230060040A1, “USE OF TRANSFERRIN, TRANSFERRIN RECEPTOR AND ANTIBODY THEREOF IN PREPARATION OF ANTI-SARS-CoV-2 DRUG” (KUNMING INSTITUTE OF ZOOLOGY, CHINESE ACADEMY OF SCIENCES, priority 2020, published 2023).
